Results published in US20100291074A1 (COLUMBIA UNIVERSITY IN THE CITY OF NEW YORK, published 2010).

Tests used:
monomeric Aβ42 = target: T1, monomeric Aβ42 (UniProt P05067 672-713); experiment: SPR (BIAcore 3000), Aβ immobilized on a CM5 chip, CypD in the mobile phase, 25° C.; monomeric Aβ42
T1 construct: domain: Aβ(1-42); Immobilized on a CM5 chip by amine coupling for SPR; also called Aβ(1-42); amyloid beta
Experimental: (§1) Aβ(1-40) and Aβ(1-42), including monomeric and oligomeric Aβ, were used in the binding assay. The kinetic parameters evaluating binding affinity were analyzed as described in the Examples. […] The evaluating curves (red line) were overlaid with experimental data.
(§2) The monomeric and oligomeric Aβ were prepared as described and characterized by atomic force microscopy. SPR studies were performed on a BIAcore 3000 system (BIAcore AB, Uppsala, Sweden). Aβ (500 μg/ml) was immobilized using the standard amino coupling on a research-grade CM5 sensor chip. […] The binding curves were analyzed with the global fitting model using BIA evaluation version 4.0.1 (BIAcore AB).

oligomeric Aβ42 = target: T2, oligomeric Aβ42 (UniProt P05067 672-713); experiment: SPR (BIAcore 3000), Aβ immobilized on a CM5 chip, CypD in the mobile phase, 25° C.; oligomeric Aβ42
T2 construct: domain: Aβ(1-42); Oligomer; Immobilized on a CM5 chip for SPR; also called Aβ(1-42); amyloid beta
T2 sequence (P05067 672-713 limits assumed): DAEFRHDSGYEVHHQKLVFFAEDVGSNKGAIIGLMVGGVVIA
Experimental: as §1, §2

monomeric Aβ40 = target: T3, monomeric Aβ40 (UniProt P05067 672-711); experiment: SPR (BIAcore 3000), Aβ immobilized on a CM5 chip, CypD in the mobile phase, 25° C.; monomeric Aβ40
T3 construct: domain: Aβ(1-40); Immobilized on a CM5 chip by amine coupling for SPR; also called Aβ(1-40); amyloid beta
T3 sequence (P05067 672-711 limits assumed): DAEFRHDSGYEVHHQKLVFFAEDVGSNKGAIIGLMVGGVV
Experimental: as §1, §2

oligomeric Aβ40 = target: T4, oligomeric Aβ40 (UniProt P05067 672-711); experiment: SPR (BIAcore 3000), Aβ immobilized on a CM5 chip, CypD in the mobile phase, 25° C.; oligomeric Aβ40
T4 construct: domain: Aβ(1-40); Oligomer; Immobilized on a CM5 chip for SPR; also called Aβ(1-40); amyloid beta
T4 sequence (P05067 672-711 limits assumed): as above
Experimental: as §1, §2

T1 sequence (P05067 672-713 limits assumed): as the sequence (P05067 672-713 limits assumed) above

- Kd (monomeric Aβ42): 164 nM
- Kd (oligomeric Aβ42): 4 nM
- Kd (monomeric Aβ40): 1700 nM
- Kd (oligomeric Aβ40): 227 nM
B1: purified recombinant human CypD protein (Cyclophilin D) (enzyme)
chain: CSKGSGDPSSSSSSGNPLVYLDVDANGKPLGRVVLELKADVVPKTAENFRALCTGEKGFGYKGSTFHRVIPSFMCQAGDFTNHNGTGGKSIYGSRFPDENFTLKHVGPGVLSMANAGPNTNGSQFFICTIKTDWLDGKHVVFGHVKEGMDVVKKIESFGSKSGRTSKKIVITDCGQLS
notes: also called human mitochondrial CypD protein; PPIF
